Drawing on article PMC12888917, “Structure-based engineering of the midnolin-proteasome pathway for targeted protein degradation” (Protein & Cell, 2025), this text covers Kd for one molecule.

The assay has as its target T1, full-length RPN1 (UniProt Q13200 1-908).
T1 construct: RPN1, full length, as isolated protein in the BLI assay
Nature of the assay: BLI; full-length RPN1 and GST-tagged midnolin C-Helix (375–413). The settings on record: both partners purified. For orientation: Biolayer interferometry detects binding as a change in optical thickness at a sensor tip.

T1 sequence (Q13200 whole entry): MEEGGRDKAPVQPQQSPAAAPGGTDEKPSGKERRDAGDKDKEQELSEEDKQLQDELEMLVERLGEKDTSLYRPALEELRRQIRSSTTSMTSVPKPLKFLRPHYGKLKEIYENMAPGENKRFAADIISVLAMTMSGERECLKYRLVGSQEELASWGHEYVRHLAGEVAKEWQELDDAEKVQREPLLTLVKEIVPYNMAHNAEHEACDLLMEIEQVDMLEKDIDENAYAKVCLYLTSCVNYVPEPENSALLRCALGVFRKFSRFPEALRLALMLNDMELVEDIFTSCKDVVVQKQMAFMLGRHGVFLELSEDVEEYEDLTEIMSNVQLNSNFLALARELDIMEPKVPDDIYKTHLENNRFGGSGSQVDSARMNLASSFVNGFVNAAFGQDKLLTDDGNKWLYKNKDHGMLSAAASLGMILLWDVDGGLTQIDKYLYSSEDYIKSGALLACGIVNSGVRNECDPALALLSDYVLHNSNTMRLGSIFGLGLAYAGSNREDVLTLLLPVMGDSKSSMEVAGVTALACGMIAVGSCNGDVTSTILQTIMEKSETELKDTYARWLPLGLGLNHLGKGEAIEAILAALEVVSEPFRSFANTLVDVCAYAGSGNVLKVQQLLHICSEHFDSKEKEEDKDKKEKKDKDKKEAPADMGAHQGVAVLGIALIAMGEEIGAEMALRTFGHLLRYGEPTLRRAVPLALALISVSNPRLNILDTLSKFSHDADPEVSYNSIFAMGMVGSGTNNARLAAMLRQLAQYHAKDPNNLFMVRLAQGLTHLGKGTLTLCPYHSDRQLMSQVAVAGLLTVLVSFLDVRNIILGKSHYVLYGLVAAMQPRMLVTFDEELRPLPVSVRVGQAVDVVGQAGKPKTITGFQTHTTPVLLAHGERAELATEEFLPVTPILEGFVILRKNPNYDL

Consider PPGDRLRQTENRATRCKVERLQLLLQQKRLRRKARRDAR (domain or fragment, human, UniProt Q504T8 375-413, looked up, also called MIDN C-Helix) [GST-tagged midnolin C-Helix (375–413)], for which the Kd – broadly, a measure of binding affinity in units of concentration – is about 88.5 nM.
